# Where a chain is given by its changes, count along the chain named. Names may count otherwise.
# B1: V213C + Y422T: ApPPO1 (SEQ ID NO: 1) variant (protein)
# chain: MPFTHLKPLNRLLGSPRARHPHVAPQAVSVTNTSTTRPGGRSSAPGIPGDAEYDVVIVGAGISGLTTAQALAKQYSDAVPRLLVTEARDCVGGNIITRRDGGYQWEEGPNSFQPSDAVLRAAVDAGVADRLVLGDPKAPRYVYWGGRLRATPSGPDVLTFDLLSLWGKLRAGLGAAGFKAPLPEREESVKEFVTRNLGEEVFQRLIEPFCSGCYAGDPAKLSMKAAFGKVYDLEKGGGSIVGGVLALMKARKQKPPEPRPADLPPKPKGQTVGSFDKGLVTLPSAIAEELGDRVVTGWKLESIDRSGDRFQLTYDTPQGRKKVSARSVALTVPAYTAASLLESRFPKLGKALSSIYYPPVASVALSYPETAILPERLGSDGHLAGFGQLHPRTQGVTTLGTIYASSLFPGRVPEGKVLLLSTFGGATNTRVATMPHGEIVSQVDKDLRKMLIRSDAESPHTVNVTVWPRAIPQFNVGHTDLIQEAKDDLASQGWQGLHLGGNYVAGVALGKCMEAGYKQAAELASHVKSLAT
# modifications: Synthetic (Protoporphyrinogen IX oxidase (ApPPO1) of Auxenochlorella protothecoides)
# B2: V213C + Y422I: ApPPO1 (SEQ ID NO: 1) variant (protein)
# chain: B1 chain with T422I
# modifications: Synthetic (Protoporphyrinogen IX oxidase (ApPPO1) of Auxenochlorella protothecoides)
# B3: A215L + Y422T: ApPPO1 (SEQ ID NO: 1) variant (protein)
# chain: B1 chain with C213V, A215L
# modifications: Synthetic (Protoporphyrinogen IX oxidase (ApPPO1) of Auxenochlorella protothecoides)
# B4: A215C + Y422T: ApPPO1 (SEQ ID NO: 1) variant (protein)
# chain: B1 chain with C213V, A215C
# modifications: Synthetic (Protoporphyrinogen IX oxidase (ApPPO1) of Auxenochlorella protothecoides)
# B5: R140A + V213C + Y422I: ApPPO1 (SEQ ID NO: 1) variant (protein)
# chain: B1 chain with R140A, T422I
# modifications: Synthetic (Protoporphyrinogen IX oxidase (ApPPO1) of Auxenochlorella protothecoides)
# B6: R140A + V213C + A215C + Y422I: ApPPO1 (SEQ ID NO: 1) variant (protein)
# chain: B1 chain with R140A, A215C, T422I
# modifications: Synthetic (Protoporphyrinogen IX oxidase (ApPPO1) of Auxenochlorella protothecoides)
# B7: R140A + V213C + Y422M: ApPPO1 (SEQ ID NO: 1) variant (protein)
# chain: B1 chain with R140A, T422M
# modifications: Synthetic (Protoporphyrinogen IX oxidase (ApPPO1) of Auxenochlorella protothecoides)
# B8: A215C + Y422I: ApPPO1 (SEQ ID NO: 1) variant (protein)
# chain: B1 chain with C213V, A215C, T422I
# modifications: Synthetic (Protoporphyrinogen IX oxidase (ApPPO1) of Auxenochlorella protothecoides)
# B9: V213C + A215L + Y422M: ApPPO1 (SEQ ID NO: 1) variant (protein)
# chain: B1 chain with A215L, T422M
# modifications: Synthetic (Protoporphyrinogen IX oxidase (ApPPO1) of Auxenochlorella protothecoides)
# B10: R140A + Y422T: ApPPO1 (SEQ ID NO: 1) variant (protein)
# chain: B1 chain with R140A, C213V
# modifications: Synthetic (Protoporphyrinogen IX oxidase (ApPPO1) of Auxenochlorella protothecoides)
# B11: R140A + Y422I: ApPPO1 (SEQ ID NO: 1) variant (protein)
# chain: B1 chain with R140A, C213V, T422I
# modifications: Synthetic (Protoporphyrinogen IX oxidase (ApPPO1) of Auxenochlorella protothecoides)
# B12: A215L + Y422I: ApPPO1 (SEQ ID NO: 1) variant (protein)
# chain: B1 chain with C213V, A215L, T422I
# modifications: Synthetic (Protoporphyrinogen IX oxidase (ApPPO1) of Auxenochlorella protothecoides)
# B13: R140A + A215C + Y422I: ApPPO1 (SEQ ID NO: 1) variant (protein)
# chain: B1 chain with R140A, C213V, A215C, T422I
# modifications: Synthetic (Protoporphyrinogen IX oxidase (ApPPO1) of Auxenochlorella protothecoides)
# B14: V213C + A215C + Y422I: ApPPO1 (SEQ ID NO: 1) variant (protein)
# chain: B1 chain with A215C, T422I
# modifications: Synthetic (Protoporphyrinogen IX oxidase (ApPPO1) of Auxenochlorella protothecoides)
# B15: R140A + V213C + A215L + Y422M: ApPPO1 (SEQ ID NO: 1) variant (protein)
# chain: B1 chain with R140A, A215L, T422M
# modifications: Synthetic (Protoporphyrinogen IX oxidase (ApPPO1) of Auxenochlorella protothecoides)
# B16: R140A + A215L + Y422M: ApPPO1 (SEQ ID NO: 1) variant (protein)
# chain: B1 chain with R140A, C213V, A215L, T422M
# modifications: Synthetic (Protoporphyrinogen IX oxidase (ApPPO1) of Auxenochlorella protothecoides)
# System: ApPPO1
# Test: Herbicide tolerance test of ApPPO1 wild type and variants in PPO-deficient E. coli BT3(ΔPPO), growth on herbicide-containing LB agar
# Format: cell-based, Auxenochlorella protothecoides
# Conditions: relative to ApPPO1 WT, dark, up to 100 μM (FIGS. 7-12)
# Method: Then, the extent of tolerance was evaluated.
row,Molecule,"Herbicide tolerance, flumioxazin"
1,B1,"+++++ (more than 10,000 fold higher tolerance)"
2,B2,"+++++ (more than 10,000 fold higher tolerance)"
3,B3,+ (1-9 fold higher tolerance)
4,B4,+++ (100-999 fold higher tolerance)
5,B5,"+++++ (more than 10,000 fold higher tolerance)"
6,B6,"+++++ (more than 10,000 fold higher tolerance)"
7,B7,"+++++ (more than 10,000 fold higher tolerance)"
8,B8,"+++++ (more than 10,000 fold higher tolerance)"
9,B9,"+++++ (more than 10,000 fold higher tolerance)"
10,B10,"++++ (1,000-9,999 fold higher tolerance)"
11,B11,"+++++ (more than 10,000 fold higher tolerance)"
12,B12,"++++ (1,000-9,999 fold higher tolerance)"
13,B13,"+++++ (more than 10,000 fold higher tolerance)"
14,B14,"+++++ (more than 10,000 fold higher tolerance)"
15,B15,"+++++ (more than 10,000 fold higher tolerance)"
16,B16,"+++++ (more than 10,000 fold higher tolerance)"

# Same assay, conditions: relative to ApPPO1 WT, dark, up to 200 μM (FIGS. 7-12)
row,Molecule,"Herbicide tolerance, tiafenacil"
1,B1,"+++++ (more than 10,000 fold higher tolerance)"
2,B2,"++++ (1,000-9,999 fold higher tolerance)"
3,B3,+ (1-9 fold higher tolerance)
4,B4,+++ (100-999 fold higher tolerance)
5,B5,"+++++ (more than 10,000 fold higher tolerance)"
6,B6,"+++++ (more than 10,000 fold higher tolerance)"
7,B7,"+++++ (more than 10,000 fold higher tolerance)"
8,B8,"+++++ (more than 10,000 fold higher tolerance)"
9,B9,"+++++ (more than 10,000 fold higher tolerance)"
10,B10,"++++ (1,000-9,999 fold higher tolerance)"
11,B11,"+++++ (more than 10,000 fold higher tolerance)"
12,B12,"++++ (1,000-9,999 fold higher tolerance)"
13,B13,"+++++ (more than 10,000 fold higher tolerance)"
14,B14,"+++++ (more than 10,000 fold higher tolerance)"
15,B15,"+++++ (more than 10,000 fold higher tolerance)"
16,B16,"+++++ (more than 10,000 fold higher tolerance)"

# Same assay, conditions: relative to ApPPO1 WT, dark, up to 400 μM (FIGS. 7-12)
row,Molecule,"Herbicide tolerance, sulfentrazone"
1,B1,"++++ (1,000-9,999 fold higher tolerance)"
2,B2,+++ (100-999 fold higher tolerance)
3,B3,"++++ (1,000-9,999 fold higher tolerance)"
4,B4,+++ (100-999 fold higher tolerance)
5,B5,"++++ (1,000-9,999 fold higher tolerance)"
6,B6,"++++ (1,000-9,999 fold higher tolerance)"
7,B7,"++++ (1,000-9,999 fold higher tolerance)"
8,B8,"++++ (1,000-9,999 fold higher tolerance)"
9,B9,"++++ (1,000-9,999 fold higher tolerance)"
10,B10,+++ (100-999 fold higher tolerance)
11,B11,"++++ (1,000-9,999 fold higher tolerance)"
12,B12,"++++ (1,000-9,999 fold higher tolerance)"
13,B13,"++++ (1,000-9,999 fold higher tolerance)"
14,B14,"++++ (1,000-9,999 fold higher tolerance)"
15,B15,"++++ (1,000-9,999 fold higher tolerance)"
16,B16,"++++ (1,000-9,999 fold higher tolerance)"

# Source: US20220042033A1, “COMPOSITION AND METHOD FOR CONFERRING AND/OR ENHANCING TOLERANCE AGAINST HERBICIDES BY USING VARIANTS OF PPO” (FarmHannong Co., Ltd., priority 2017, published 2022)
